The text below walks through data of patent US20040116333A1 (ABGENOMICS COOPERATIEF U A, published 2004).

Experiment [1] deals with human P-selectin glycoprotein ligand-1 (PSGL-1) (human) (UniProt Q14242). The experiment is described as follows: cell-based or functional assay.
Experiment [2] deals with T1, recombinant mouse P-selectin/Fc chimera (R&D Systems) (mouse; human, UniProt Q01102 42-709).
T1 construct: range 42-709; The CD33 signal peptide (Met1-Ala16) of the construct is left out; also called mouse P-Selectin fused to the Fc region of human IgG1; P-selectin-Fc fusion protein; not shown: Human IgG1 constant region, Pro100-Lys330
T1 sequence: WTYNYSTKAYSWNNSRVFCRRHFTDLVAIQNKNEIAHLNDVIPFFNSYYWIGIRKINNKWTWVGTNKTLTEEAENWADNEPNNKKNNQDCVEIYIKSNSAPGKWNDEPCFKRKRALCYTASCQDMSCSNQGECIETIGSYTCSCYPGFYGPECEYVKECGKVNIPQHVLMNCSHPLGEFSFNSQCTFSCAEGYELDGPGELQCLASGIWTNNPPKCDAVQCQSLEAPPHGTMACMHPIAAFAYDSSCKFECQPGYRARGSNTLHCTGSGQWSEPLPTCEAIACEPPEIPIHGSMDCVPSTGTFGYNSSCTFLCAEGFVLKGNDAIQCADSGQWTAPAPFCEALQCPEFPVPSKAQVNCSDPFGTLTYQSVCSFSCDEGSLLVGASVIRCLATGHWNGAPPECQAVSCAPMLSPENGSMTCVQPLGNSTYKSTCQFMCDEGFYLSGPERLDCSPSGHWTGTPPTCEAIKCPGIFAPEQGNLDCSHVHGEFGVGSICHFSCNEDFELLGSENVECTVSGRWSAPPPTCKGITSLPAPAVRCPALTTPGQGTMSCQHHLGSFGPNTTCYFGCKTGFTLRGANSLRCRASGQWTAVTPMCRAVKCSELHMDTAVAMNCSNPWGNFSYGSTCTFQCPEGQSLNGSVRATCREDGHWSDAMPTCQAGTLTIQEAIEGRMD
Briefly: flow cytometry on Con A-activated mouse T cells, FITC-anti human IgG Fc detection. The protocol: To determine ability of selectins (P-Selectin, E-Selectin, and L-Selectin) to bind to activated T cells, freshly prepared splenocytes from C57BL/6 mice were activated and harvested at days 2, 4, and 6. Non-activated T cells (i.e., freshly prepared splenocytes at day 0) were also analyzed. The day 2 sample constituted 3×10⁶ cells/ml of splenocytes that were activated with 2 ug/ml of Concanavalin A (Con A) in DMEM+10% FBS for 2 days. Live cells were isolated by Ficoll gradient separation. The day 4 sample was obtained from cells that were activated with Con A for 3 days and maintained in medium containing 5 ng/ml of IL-2 for an additional day. The day 6 sample was derived from cells that were activated with Con A for 3 days and maintained in 5 ng/ml of IL-2 for 3 days.
To assay the samples by FACS analysis, 2×10⁵ cells per well from days 0, 2, 4 and 6 were incubated at 4° C. for 30 minutes with 40 ul/well of mouse P-Selectin, E-Selectin, or L-Selectin fused to the Fc region of human IgG1 (R&D Systems, Minneapolis, Minn.) at concentrations ranging from 20 ug/ml with two-fold serial dilution to 0.156 ug/ml. Following the incubation, cells were washed with 1× FACScan buffer (1×PBS without calcium and magnesium ions from Biochrom AG, Berlin and 2% FBS). […]

Chain of human P-selectin glycoprotein ligand-1 (PSGL-1) (human) (Q14242 42-412): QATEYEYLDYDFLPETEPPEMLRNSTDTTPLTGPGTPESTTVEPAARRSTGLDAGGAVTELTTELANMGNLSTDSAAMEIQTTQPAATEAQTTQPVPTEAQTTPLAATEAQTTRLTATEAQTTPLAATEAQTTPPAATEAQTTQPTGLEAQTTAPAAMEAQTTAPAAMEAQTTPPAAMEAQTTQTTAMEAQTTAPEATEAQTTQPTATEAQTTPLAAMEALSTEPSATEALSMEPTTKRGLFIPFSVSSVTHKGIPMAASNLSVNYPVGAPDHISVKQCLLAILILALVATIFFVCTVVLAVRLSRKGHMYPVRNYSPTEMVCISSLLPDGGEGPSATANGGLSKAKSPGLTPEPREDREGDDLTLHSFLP

As to “anti-PSGL-1 antibody clone KPL-1 (BD PharMingen)”, in experiment [1], the percentage of apoptotic cells (Annexin V / PI, FACS) in PHA-activated human PBMC, day 3, with rabbit anti-mouse Ig cross-linker was 8.5% and the percentage of apoptotic cells (Annexin V / PI, FACS) in PHA-activated human PBMC, day 8, with rabbit anti-mouse Ig cross-linker was 24%.

B1: mouse P-selectin glycoprotein ligand-1 (PSGL-1), first designated T cell apoptosis inducing protein (TAIP) (receptor, UniProt Q62170 42-397, looked up)
chain: QVVGDDDFEDPDYTYNTDPPELLKNVTNTVAAHPELPTTVVMLERDSTSAGTSERATEKIATTDPTAPGTGGTAVGMLSTDSATQWSLTSVETVQPASTEVETSQPAPMEAETSQPAPMEAETSQPAPMEAETSQPAPMEADTSQPAPMEAETSQPAPNEAETSKPAPTEAETSKPAPTEAETTQLPRIQAVKTLFTTSAATEVPSTEPTTMETASTESNESTIFLGPSVTHLPDSGLKKGLIVTPGNSPAPTLPGSSDLIPVKQCLLIILILASLATIFLVCTVVLAVRLSRKTHMYPVRNYSPTEMICISSLLPEGGDGAPVTANGGLPKVQDLKTEPSGDRDGDDLTLHSFLP
notes: whole, on cells; Endogenous protein on mouse T cells; For immunoprecipitation and western blot it was solubilised from RL1 T cell lysates; also called TAIP antigen; CD162
Consider B1, for which the binding result in experiment [2] is recorded as “binds”.
